Measurements as given in article PMC2172055 (The Journal of Cell Biology, 2004).

What was measured:
Sec61α = Sec61α (canine (endogenous in MDCK), UniProt P38377 1-476); assay: FRET or BRET
Sec61β = Sec61β (canine (endogenous in MDCK), UniProt P60467 1-96); assay: FRET or BRET
Chain of Sec61β (P60467 whole entry): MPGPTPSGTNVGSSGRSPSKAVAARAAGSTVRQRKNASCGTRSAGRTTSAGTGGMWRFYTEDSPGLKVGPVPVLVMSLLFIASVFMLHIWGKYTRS

Chain of Sec61α (P38377 whole entry): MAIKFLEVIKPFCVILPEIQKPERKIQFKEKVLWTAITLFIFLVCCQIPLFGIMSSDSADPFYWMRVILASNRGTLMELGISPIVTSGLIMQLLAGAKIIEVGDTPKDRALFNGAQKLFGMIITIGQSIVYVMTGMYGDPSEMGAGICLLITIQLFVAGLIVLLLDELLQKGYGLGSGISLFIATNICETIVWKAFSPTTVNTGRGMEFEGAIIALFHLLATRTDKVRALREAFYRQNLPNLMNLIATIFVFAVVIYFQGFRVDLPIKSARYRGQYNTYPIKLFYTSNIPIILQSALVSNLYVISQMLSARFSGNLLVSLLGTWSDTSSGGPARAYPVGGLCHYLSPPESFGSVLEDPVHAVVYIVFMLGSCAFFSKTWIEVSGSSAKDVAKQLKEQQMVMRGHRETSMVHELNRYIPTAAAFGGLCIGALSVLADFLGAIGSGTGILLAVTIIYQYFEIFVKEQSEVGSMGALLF

FRET efficiency (pactamycin-treated cells) (Sec61α) [%] | FRET efficiency (puromycin-treated cells) (Sec61α) [%] | FRET efficiency (untreated cells) (Sec61α) [%] | FRET efficiency (pactamycin-treated cells) (Sec61β) [%] | FRET efficiency (puromycin-treated cells) (Sec61β) [%] | FRET efficiency (untreated cells) (Sec61β) [%] | Binder
32.2 | 31.6 | 34.1 | 18.8 | 17.2 | 16 | SRα (natural protein) MLDFFTIFSKGGLVLWCFQGVSDSCTGPVNALIRSVLLQERGGNNSFTHEALTLKYKLDNQFELVFVVGFQKILTLTYVDKLIDDVHRLFRDKYRTEIQQQSALSLLNGTFDFQNDFLRLLREREESSKIRAPTTMKKFEDSEKAKKPVRSMIETRGEKPKEKAKNSKKKGAKKESSDGPLATGKAVPAEKSGLPAGPENGVELSKEELIRRKREEFIQKHGRGLEKSSKSTKSDAPKEKGKKAPRVWALGGCANKEVLDYSAPTTNGAPDAAPPEDINLIRGTGPGGQLQDLDCSSSDDEETAQNASKPSATKGTLGGMFGMLKGLVGSKSLSREDMESVLDKMRDHLIAKNVAADIAVQLCESVANKLEGKVMGTFSTVTSTVKQALQESLVQILQPQRRVDMLRDIMDAQRHQRPYVVTFCGVNGVGKSTNLAKISFWLLENGFSVLIAACDTFRAGAVEHVRTHTRRLSALHPPEKHAGPTMVQLFEKGYGKDAAGIAMEAIAFARNQGFDVVLVDTAGRMQDNAPLMTALAKLITVNTPDLVLFVGEALVGNEAVDQLVKFNRALADHSMAQTPRLIDGIVLTKFDTIDDKVGAAISMTYITSKPIVFVGTGQTYCDLRSLNAKAVVAALMKA
15.2 | 13.6 | 18.4 | 11.8 | 11.1 | 13.6 | TRAPα (natural protein) GPGGSLVAAQDLTEDEETVEDSIIEDEDDEAEVEEDEPTDLAEDKEEEDVSGEPEASPSADTTILFVKGEDFPANNIVKFLVGFTNKGTEDFIVESLDASFRYPQDYQFYIQNFTALPLNTVVPPQRQATFEYSFIPAEPMGGRPFGLVINLNYKDLNGNVFQDAVFNQTVTIIEREDGLDGETIFMYMFLAGLGLLVVVGLHQLLESRKRKRPIQKVEMGTSSQNDVDMSWIPQETLNQINKASPRRLPRKRAQKRSVGSDE
19.7 | 19.8 | 17.6 | 10.4 | 11.9 | 12.8 | TRAM (natural protein) MAIRKKSTKSPPVLSHEFILQNHADIVSCVAMVFLLGLMFEITAKASIIFVTLQYNVTLPATEEQATESTSLYYYGIKDLATVFFYMLVAIIIHAIIQEYVLDKINRRMHFSKTKHSKFNESGQLSAFYLFSCIWGTFILISENYISDPTILWRAYPHNLMTFQMKFFYIAQLAYWFHAFPELYFQKTKKEDIPRQLVYIGLYLFHIAGAYLLNLNHLGLVLLVLHYFVEFLFHISRLFYFSDEKYQKGFSLWAVLFVLGRLLTLILSVLTVGFGLARAENQKLDFSAGNFNVLAVRIAVLASICITQAFMMWKFINFQLRRWREHSTFQAPVVKKKPTVTKGRSSRKGTENGVNGTVTSNGADSPRNRKEKSS
